Data: PMC4323418
Like-named read-outs stand apart in the source and are kept apart here.

T1: CceR-6xHis (Rhodobacter sphaeroides 2.4.1, UniProt Q3J5X3 1-345)
T1 sequence: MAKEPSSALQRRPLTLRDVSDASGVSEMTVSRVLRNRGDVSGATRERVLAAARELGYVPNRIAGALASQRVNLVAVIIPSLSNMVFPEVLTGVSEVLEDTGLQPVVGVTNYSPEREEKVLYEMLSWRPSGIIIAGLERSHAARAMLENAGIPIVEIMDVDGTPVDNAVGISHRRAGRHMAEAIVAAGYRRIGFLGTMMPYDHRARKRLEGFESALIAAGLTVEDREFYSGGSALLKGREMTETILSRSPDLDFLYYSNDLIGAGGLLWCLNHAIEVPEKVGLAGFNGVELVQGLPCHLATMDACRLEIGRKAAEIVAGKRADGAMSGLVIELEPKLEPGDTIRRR

B1: bchF promoter fragment (dsDNA)
DNA 1: TCATCCAAGGAGGAACGCATGTCAAAGAAAATTGACACCTCAGGCAGCGGAGGCAGCCCATCCCCCGCTGAACTCACACTTAATCCTTGGATTTACGACAGAGTGTCGCAGCTTC
DNA 2: GAAGCTGCGACACTCTGTCGTAAATCCAAGGATTAAGTGTGAGTTCAGCGGGGGATGGGCTGCCTCCGCTGCCTGAGGTGTCAATTTTCTTTGACATGCGTTCCTCCTTGGATGA
B2: zwf promoter fragment (dsDNA)
DNA 1: CGGGCGTCTTTCCACATTTACCCCGGCGGGGGGCGCGCTAGACTCGGGCCACGGCAGCCGCTAGAACGGCCGTTAGCGCTAACAGGCGAGGCAGC
DNA 2: GCTGCCTCGCCTGTTAGCGCTAACGGCCGTTCTAGCGGCTGCCGTGGCCCGAGTCTAGCGCGCCCCCCGCCGGGGTAAATGTGGAAAGACGCCCG

Experiments:
CceR-6xHis [1] = target: T1, CceR-6xHis; assay: EMSA
CceR-6xHis [2] = target: T1, CceR-6xHis; assay: EMSA; remark: listed apart in the source

| Binder | binding result (CceR-6xHis [1]) | binding result (CceR-6xHis [2]) |
| --- | --- | --- |
| B1 | no binding | – |
| B2 | – | binds |
